Measurements as given in the supplement of paper PMC9732359.
± gives the uncertainty stated by the source.

Assay: protein stability index of a GFP-peptide fusion (yeast GPS) (PSI 1-4); higher = more stable; sorted into four equal gates, so the index is relative within each strain
How it was run: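 Tiled 17-residue yeast protein peptides were fused downstream of GFP in a plasmid that also expresses Cherry, and the pooled library was carried in yeast. Mid-log cultures in leucine-free medium were sorted into four equal gates by GFP/Cherry fluorescence ratio, and plasmids from each gate were PCR-amplified and Illumina-sequenced, with reads assigned to strains by barcodes. The protein stability index for each peptide was each gate's read frequency times its gate number, summed.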

Sequence | protein stability index (doa10∆) | protein stability index (pdr5∆) | protein stability index (san1∆) | protein stability index (ubr1∆)
QNNTTKFHSELQYLDKH [RPN12] | 2.81 ± 0.1 | 3 ± 0.095 | 2.39 ± 0.26 | 3.17 ± 0.061
LALPVFHIGYFKATIQI [RPO31] | 1.51 ± 0.059 | 1.49 ± 0.043 | 1.87 ± 0.098 | 1.58 ± 0.044
EIEQVCKQVHDKLTSIQ [MED7] | 2.92 ± 0.067 | 3.23 ± 0.04 | 2.92 ± 0.06 | 2.89 ± 0.055
QVARTNLDGTKAVKLRK [ROX3] | 3.03 ± 0.07 | 3.13 ± 0.063 | 2.98 ± 0.051 | 3.15 ± 0.058
TNAKIPQFDSTQPKSSS [SSN3] | 3.03 ± 0.042 | 3.01 ± 0.044 | 3.09 ± 0.039 | 2.98 ± 0.032
LEVFHHFFKWIEFIVYH [SRB8] | 1.13 ± 0.054 | 1.11 ± 0.047 | 1.08 ± 0.17 | 1.06 ± 0.041
LPHITQLEGFESRKAFF [RPB2] | 2.92 ± 0.082 | 2.96 ± 0.06 | 3.08 ± 0.052 | 3.12 ± 0.041
AEEVRNFALTTLIDLVK [ECM29] | 2.59 ± 0.086 | 1.9 ± 0.075 | 1.78 ± 0.073 | 2 ± 0.059
PFYGSYTETDPAKVAEE [SRP54] | 3.19 ± 0.1 | 3.01 ± 0.14 | 3.08 ± 0.055 | 2.82 ± 0.099
FERIMILDPQVTRFTTW [YJL039C/NUP192] | 1.06 ± 0.077 | 1.33 ± 0.073 | 1.22 ± 0.12 | 1.23 ± 0.062
KSESDELQMRSFLKEGD [RRP4] | 3.18 ± 0.13 | 2.71 ± 0.23 | 3.09 ± 0.12 | 3.16 ± 0.096
KRVTIQKKDIKLARRLR [HHT1] | 3.15 ± 0.14 | 2.87 ± 0.17 |  | 3.05 ± 0.088
FMEIVLEYNVALNDVYL [YML031W/NDC1] | 2.47 ± 0.09 | 2.3 ± 0.084 | 2.22 ± 0.11 | 1.66 ± 0.064
QEQLKQMDQQLQYTALT [ARP7] | 2.71 ± 0.16 | 2.67 ± 0.25 | 2.55 ± 0.2 | 3 ± 0.18
YLNSRIIPTTLEEQQQL [YML103C/NUP188] | 1.97 ± 0.039 | 2.04 ± 0.042 | 1.82 ± 0.071 | 2.13 ± 0.052
FEYEGVQDIIGNGKLSE [RPN1] |  | 2.85 ± 0.18 | 3.21 ± 0.26 | 2.74 ± 0.1
QERKDFLKKVMDTIQDK [ECM29] | 3.12 ± 0.13 | 3.41 ± 0.12 | 3.35 ± 0.11 | 3.17 ± 0.072
EIKKVTQIVAKFPETSY [SIN4] | 2.25 ± 0.27 | 3.02 ± 0.11 |  | 2.57 ± 0.27
ERAELETDEYISYTSHI [RPN1] | 3.14 ± 0.071 | 3.19 ± 0.076 | 3.01 ± 0.065 | 3.19 ± 0.05
AGEFGLKNKKEIYRISF [RPS9A] | 2.58 ± 0.065 | 2.95 ± 0.089 | 3.08 ± 0.14 | 2.77 ± 0.066
NESWKSSFEKFNDSQAI [SRP72] | 2.96 ± 0.055 | 2.96 ± 0.059 | 2.79 ± 0.043 | 3.02 ± 0.037
AAAEIADEPVKASLLLH [FAS2] | 3.1 ± 0.18 | 3.01 ± 0.24 | 2.75 ± 0.19 | 1.17 ± 0.21
WMLSICVEWRLPEIAKE [YJR042W/NUP85] | 1.2 ± 0.08 | 1.37 ± 0.05 | 1.51 ± 0.11 | 1.67 ± 0.061
MASRVDETTVPSYYYYV [ROX3] | 1.48 ± 0.07 | 2.24 ± 0.05 | 1.94 ± 0.096 | 1.94 ± 0.069
IYVHVRRSTPFSKIAEY [ESC2] | 2.16 ± 0.053 | 2.33 ± 0.049 | 2.52 ± 0.05 | 2.52 ± 0.047
VRNLQGIQEVVHNTNSF [NUT1] | 2.98 ± 0.079 | 3.15 ± 0.068 | 2.94 ± 0.063 | 3.17 ± 0.063
AFSFGAKPDEKKNDEVS [YJL041W/NSP1] | 3.22 ± 0.16 | 3.19 ± 0.15 |  | 3.26 ± 0.17
RFSPDEDFEHNNLSSMN [MCD1] | 2.69 ± 0.094 | 3.35 ± 0.18 | 3.09 ± 0.091 | 3.18 ± 0.074
